Laboratory results: the supplement of paper PMC10567573

B1: ZNF649 (parent)
chain: YHTGKTPFVCPECGQPCSQKSGLI
B2: KRT18 (parent)
chain: RVRSLETENRRLESKIREHLEKKG

Variants of: B1
Test: protein stability index of a GFP-peptide fusion (GPS, HEK-293T) (PSI 1-6); higher = more stable
Settings: c terminus: a fixed tail appended
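Note: lentivirally expressed fusions sorted by FACS into six bins by GFP to DsRed ratio, PSI derived from sequencing read proportions per bin multiplied by bin number.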

Protein stability index, by site and new letter:
S21: C 2.32, K 1.4, Q 1.56, N 1.93, F 1.89, E 1.85, V 1.6, G 2.41, R 1.92, D 1.76, L 2.15, H 1.81, P 1.9, Y 2.56, I 1.67, T 1.96, A 1.4, M 2.26
S18: M 3.02, T 2.5, Q 1.49, V 1.44, K 1.46, D 2.25, N 1.22, C 2.08, G 1.43, A 2.31, F 2.27, E 3.48, P 2.26, L 1.85, Y 2.4, W 1.82, I 2.47, H 1.26
V9: N 3, Q 2.02, K 1.58, F 3.17, R 2.24, L 2.99, E 1.61, H 2.47, D 2.39, T 2.43, W 2.49, Y 3.65, A 3.38, G 1.79, I 2.38
G22: P 2.91, Q 2.2, S 2.63, V 2.92, T 1.65, N 2.3, E 2.32, Y 3, W 1.63, D 1.49, L 2.97, R 2.22, F 2.34, H 2.72, C 2.19, K 1.89, I 2.15, A 1.81, M 1.87
P16: K 1.98, I 1.87, N 1.23, F 2.1, M 1.86, C 4.29, H 2.65, A 2.79, R 1.54, E 2.79, D 1.91, S 1.9, Q 2.37, Y 1.04, V 2.44, L 2.82, G 2.99, T 1.34
C10: M 1.53, R 1.75, V 1.81, I 2.33, Q 1.27, W 2.79, D 1.61, H 1, G 2.31, T 2.37, S 2.85, L 2.06, N 2.23, P 1.54, F 1.98, E 1.33, Y 2.29, K 1.76
P7: C 2.26, W 2.04, D 2.05, N 1.98, H 3.19, S 1.6, L 2.12, A 1.73, M 1.22, G 2.05, E 1.44, R 1.03, Q 1.77, I 1.76, T 2.52
E12: R 2.32, V 2.22, I 1.91, H 1.54, Y 2.26, S 2.11, A 1.96, G 3.37, K 2.35, Q 1.9, D 3.08, N 1.53, W 2.06, T 2.07, M 1.23, F 2.31, L 2.16
K20: Y 3.04, N 1.07, C 4.04, M 1.53, P 2.1, D 1.72, I 3.23, S 2.53, Q 3.76, H 2.43, V 1.43, A 2.05, R 2.69, E 1.35, T 1.8, L 1.37
F8: M 1.62, P 2.46, H 2.41, N 2.16, L 2.1, S 2.15, E 2.52, R 2.09, D 2.17, V 1.78, A 1.84, C 1.83, T 1.67, Y 1.54, K 1.82, G 1.8, Q 2.69, I 2.24
G14: W 1.61, I 1.79, V 2.06, T 3.65, F 1.94, M 2.05, Y 2.27, E 1.95, Q 2.31, K 2.76, C 2.12, R 3.6, S 1.72, A 2.16, P 2.54
Q15: M 2.16, H 2.23, S 2.21, R 1.63, K 2.35, C 1.89, V 1.5, G 1.45, F 3.01, E 2.65, T 2.35, N 3.41, I 1.62, W 1.83, Y 1.75
C13: M 2.98, V 2.13, T 2.99, S 1.62, N 1.83, Q 2.54, K 3.33, I 2.35, D 2.6, Y 3.41, H 3, P 2.27, A 3.53, F 2.8, R 2.37, E 2.87
T6: V 1.65, Q 2.96, W 1.96, N 2.89, S 1.53, M 1.68, P 2.19
Q19: H 2.2, I 1.57, T 2.81, N 1.59, M 2.49, F 2, A 1.58, D 2.37, P 2.04, S 2.96, G 1.49, R 2.27, E 1.71, K 1.29, C 2.69, W 1.23
I24: D 1.36, T 2.01, L 1.52, E 2.12, N 1.99, A 1.08, C 3.08, F 2.92, P 1.54, Q 2.33, S 1.45, G 2.94, K 1.84, H 2.42, M 1.84, Y 1.59, V 1.67
L23: P 2.15, R 1.92, E 1.03, C 2.83, N 3.38, G 4.1, A 1.59, V 2.58, Y 1.72, Q 3.01, I 2.03, D 2.12, K 2.56, S 2.72, M 1.46, W 1.16, H 2.05, T 2.2
C17: Q 1.96, I 2.01, F 1.59, M 2.14, S 2.81, K 3.83, H 1.73, T 2.04, E 1.48, N 2.76, V 2.26, G 2.94, Y 2.35, L 1.66, P 2.54, D 2.63, A 3.38
P11: D 1.4, N 1.62, C 1.65, F 2.44, K 2.46, I 1.69, M 2.32, S 1.93, T 2.49, Q 1.57, L 1.71, G 1.43, V 2.33, A 2.04, E 1.61, H 2.16, R 1.79

Variants of: B2
Test: as above
Settings: c terminus: a fixed tail appended

Protein stability index, by site and new letter:
K23: F 3.76
R17: N 4.25, V 4.96
E13: Y 3.05, V 3.74
I16: C 4.79
R11: S 5.33, C 4.96
E8: T 4.2
S14: E 4.78
H19: Q 5.04
K15: P 5.23, N 5.24, W 3.1
L20: I 4.79
S4: E 4.48
G24: V 4.01
E18: Y 4.07
V2: C 4.78
L12: I 4.77
L5: A 4.54
E21: K 3.75
R3: A 4.51, G 4.64
